Among the data in the Immune Epitope Database (IEDB) are IC50 values, retold here.

Targets include HLA-A*68:02; HLA-A*02:03; HLA-A*02:02; HLA-A*02:01; HLA-A*02:06.
Common to all, as to assay: IEDB peptide-MHC binding, purified MHC/competitive/radioactivity; ≥ and ≤ were set here for values at or beyond the usual limits of such assays
The mark [1] stands for this setting: source organism: Mammarenavirus whitewaterense.
The mark [2] stands for this setting: source organism: Vaccinia virus WR.

Turning to CNYTKFWYV, the concentration for half-maximal inhibition (IC50) is 0.247 µM with HLA-A*68:02 (setting [1]); 0.794 µM with HLA-A*02:03 (setting [1]); 1.95 µM in the assay with HLA-A*02:02 (setting [1]); 0.725 µM in the assay with HLA-A*02:01 (setting [1]); 0.035 µM with HLA-A*02:06 (setting [1]).
Regarding CTINVNSLA, the IC50 with HLA-A*68:02 (setting [2]) amounted to 0.013 µM; with HLA-A*02:03 (setting [2]), 1.61 µM; with HLA-A*02:02 (setting [2]), 1.04 µM; with HLA-A*02:01 (setting [2]), 1.04 µM; in the assay with HLA-A*02:06 (setting [2]), 0.248 µM.
On to CTINVNSLAL, for which the IC50 with HLA-A*68:02 (setting [2]) turned out to be 0.517 µM; with HLA-A*02:03 (setting [2]), 1.04 µM; with HLA-A*02:02 (setting [2]), 0.494 µM; in the assay with HLA-A*02:01 (setting [2]), 1.04 µM; in the assay with HLA-A*02:06 (setting [2]), 0.216 µM.
As for CTMERTNDL, the IC50 with HLA-A*68:02 (setting [2]) stood at 0.103 µM; in the assay with HLA-A*02:03 (setting [2]) it was 0.025 µM; with HLA-A*02:02 (setting [2]), 0.036 µM; in the assay with HLA-A*02:01 (setting [2]) it was 0.345 µM; in the assay with HLA-A*02:06 (setting [2]), 0.096 µM.
The like results for CVDHPFIYV were, in that order, 0.0051 µM, 1.41 µM, 0.3 µM, 0.546 µM and 0.148 µM.
Turning to CVMYASALV, the IC50 was 0.00089 µM with HLA-A*68:02 (source organism: SARS-CoV1); 0.0029 µM in the assay with HLA-A*02:03 (source organism: SARS-CoV1); 0.0045 µM in the assay with HLA-A*02:02 (source organism: SARS-CoV1); 0.0093 µM in the assay with HLA-A*02:01 (source organism: SARS-CoV1); 0.0074 µM with HLA-A*02:06 (source organism: SARS-CoV1).
As to CVSNLDISSV, the IC50 with HLA-A*68:02 (setting [2]) was determined as 1.03 µM; with HLA-A*02:03 (setting [2]), 0.0023 µM; with HLA-A*02:02 (setting [2]) it was 0.052 µM; in the assay with HLA-A*02:01 (setting [2]) it was 1.48 µM; with HLA-A*02:06 (setting [2]), 0.048 µM.
Taken in the same sequence, the figures for DIISSKQYPA were 0.22 µM, 2.43 µM, 0.552 µM, 2.89 µM and 3.1 µM.
Taken in the same sequence, the figures for DINESMSQMV were 2.07 µM, 0.488 µM, 0.312 µM, 0.158 µM and 4.15 µM.
Taken in the same sequence, the figures for DLLNVTYNI were 0.212 µM, 0.194 µM, 0.297 µM, 0.787 µM and 1.28 µM.
As for DLNIFMTLV, the IC50 in the assay with HLA-A*68:02 (setting [2]) worked out at 0.192 µM; with HLA-A*02:03 (setting [2]), 0.556 µM; with HLA-A*02:02 (setting [2]), 1.91 µM; with HLA-A*02:01 (setting [2]), 1.12 µM; with HLA-A*02:06 (setting [2]) it was 2.19 µM.
In the case of DQLVFNSISA, the IC50 was 4.13 µM with HLA-A*68:02 (setting [2]); 0.289 µM with HLA-A*02:03 (setting [2]); 0.206 µM with HLA-A*02:02 (setting [2]); 0.527 µM with HLA-A*02:01 (setting [2]); 0.759 µM in the assay with HLA-A*02:06 (setting [2]).
Taken in the same sequence, the figures for DQTHIKTIAV were 0.404 µM, 0.39 µM, 2.17 µM, 0.65 µM and 1 µM.
The like results for DTCLLAISAV were, in that order, 0.118 µM, 0.093 µM, 2.46 µM, 0.046 µM and 0.106 µM.
The like results for DTMSIYIAVA were, in that order, 0.017 µM, 0.024 µM, 0.019 µM, 0.083 µM and 1.48 µM.
As for DVERLQMAGV, the IC50 with HLA-A*68:02 (setting [2]) was 0.363 µM; in the assay with HLA-A*02:03 (setting [2]) it was 0.104 µM; in the assay with HLA-A*02:02 (setting [2]), 0.215 µM; with HLA-A*02:01 (setting [2]), 0.683 µM; in the assay with HLA-A*02:06 (setting [2]), 0.776 µM.
The like results for DVFRPLFDFV were, in that order, 0.18 µM, 2.57 µM, 1.02 µM, 1.65 µM and 0.232 µM.
The like results for DVLPFDIKYI were, in that order, 0.361 µM, 0.188 µM, 1.2 µM, 0.183 µM and 1.11 µM.
Taken in the same sequence, the figures for DVSLSAYII were 0.591 µM, 0.755 µM, 0.691 µM, 1.51 µM and 4.38 µM.
For EAAAATCALV, the 50% inhibitory concentration (IC50) was found to be 0.00021 µM in the assay with HLA-A*68:02 (setting [2]); 0.248 µM with HLA-A*02:03 (setting [2]); 1.81 µM with HLA-A*02:02 (setting [2]); 0.318 µM with HLA-A*02:01 (setting [2]); 0.06 µM in the assay with HLA-A*02:06 (setting [2]).
Taken in the same sequence, the figures for ELAYYNSCM were 0.278 µM, 0.136 µM, 0.129 µM, 4.37 µM and 3.58 µM.
Taken in the same sequence, the figures for ELKHGLLDSI were 0.266 µM, 0.055 µM, 0.54 µM, 0.738 µM and 1.34 µM.
As for ELTTVFIKYV, the 50% inhibitory concentration (IC50) with HLA-A*68:02 (setting [2]) worked out at 0.081 µM; with HLA-A*02:03 (setting [2]) it was 0.719 µM; in the assay with HLA-A*02:02 (setting [2]), 2.79 µM; with HLA-A*02:01 (setting [2]), 2.56 µM; with HLA-A*02:06 (setting [2]), 0.463 µM.
As to EMVEYLENQL, the IC50 with HLA-A*68:02 (setting [2]) came out at 1.65 µM; with HLA-A*02:03 (setting [2]) it was 0.209 µM; in the assay with HLA-A*02:02 (setting [2]) it was 0.212 µM; with HLA-A*02:01 (setting [2]), 0.485 µM; in the assay with HLA-A*02:06 (setting [2]), 0.42 µM.

A word on the IC50: it is the point on the concentration scale where inhibition reaches its midpoint.
